The values below come from patent publication US20200071378A1 (SHATTUCK LABS, published 2020).

Experiment [1] addresses T1, human OX40 expressed on cells (Jurkat/hOX40) (human, UniProt P43489 29-277).
T1 construct: whole, on cells; also called Jurkat cells engineered to overexpress human OX40; OX40 present on the cell surface
T1 sequence (looked up): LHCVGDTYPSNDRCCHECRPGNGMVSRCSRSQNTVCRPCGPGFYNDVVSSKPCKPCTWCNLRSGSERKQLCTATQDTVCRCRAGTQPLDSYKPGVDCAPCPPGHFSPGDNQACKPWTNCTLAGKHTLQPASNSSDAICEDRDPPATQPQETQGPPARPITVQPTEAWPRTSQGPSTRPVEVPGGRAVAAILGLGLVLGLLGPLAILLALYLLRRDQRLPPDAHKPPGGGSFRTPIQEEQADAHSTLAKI
The experiment in a line: flow cytometry on Jurkat/hOX40 cells. How it is done: For cell binding assays, immortalized cell lines were engineered to stably express human OX40 (Jurkat/hOX40). Increasing concentrations of the VSIG8-Fc-OX40L chimeric protein were incubated with the over-expressing (Jurkat/hOX40) cell line for two hours. Cells were collected, washed, and stained with antibodies for the detection of chimeric protein binding by flow cytometry.
(In general: Flow cytometry measures light scatter and fluorescence of single cells or particles in a stream.)

Experiment [2] deals with T2, hOX40-His (human, UniProt P43489 29-216, limits assumed).
T2 construct: also called human OX40
T2 sequence (looked up): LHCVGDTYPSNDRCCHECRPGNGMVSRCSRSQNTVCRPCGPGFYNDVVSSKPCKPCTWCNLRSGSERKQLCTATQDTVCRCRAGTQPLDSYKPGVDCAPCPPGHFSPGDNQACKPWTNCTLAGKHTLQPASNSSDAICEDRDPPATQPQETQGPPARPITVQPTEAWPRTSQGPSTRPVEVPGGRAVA
Description: SPR/Octet kinetics on hOX40-His, against the control Fc-OX40L.

For experiment [3], the target named is T2, hOX40-His. Description: SPR (BioRad ProteOn XPR 360) per Example 5; FIG. 5 legend says biolayer interferometry (Octet); hOX40-His as ligand, analyte at 117.6 nM. For orientation: BLI is a label-free optical method that tracks binding on a fibre tip over time.
The target of experiment [4] is T3, human IgG (plate-bound).
T3 construct: Capture reagent as printed; It may in fact be an anti-human IgG antibody; also called hIgG
The experiment in a line: ELISA, left panel; sheet header 'IgG ELISA, H&L Capture, Fc-HRP Detect'; paragraph 219: capture on plate-bound human IgG, detection with HRP-conjugated anti-human IgG antibody. An excerpt:
Specifically, the Fc portion of the chimeric protein was detected by capturing to a plate-bound human IgG and detecting via an HRP-conjugated anti-human IgG antibody (left panel of FIG. 3). The OX40 domain of the chimeric protein was detected by capturing to a plate-bound recombinant human OX40 protein and detecting via an anti-OX40-specific antibody (right panel of FIG. 3). It was observed that in ELISA assays, using the central Fc region to detect chimeric proteins tended to underestimate the actual protein content in a sample. Therefore, low level of the hVSIG8-Fc-OX40L chimeric protein was detected compared to standard in this assay.
In general terms: ELISA stands for enzyme-linked immunosorbent assay.

Experiment [5] has as its target T2, hOX40-His. The experiment in a line: SPR (BioRad ProteOn XPR 360) per Example 5; FIG. 5 legend says biolayer interferometry (Octet); hOX40-His as ligand, analyte at 222.2 nM.
In experiment [6] the target is T4, recombinant murine OX40-His (murine, UniProt P47741 20-211, limits assumed).
T4 construct: Coated on penta-his biosensors; also called mOX40
T4 sequence (looked up): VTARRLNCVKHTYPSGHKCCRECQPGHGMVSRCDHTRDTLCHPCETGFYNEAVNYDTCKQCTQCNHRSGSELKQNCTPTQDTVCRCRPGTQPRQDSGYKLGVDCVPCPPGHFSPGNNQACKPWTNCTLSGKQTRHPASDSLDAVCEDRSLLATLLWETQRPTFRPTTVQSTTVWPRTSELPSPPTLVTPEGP
Description: biolayer interferometry, 'Octet Binding Affinities, Ligand: mouse OX40-His'; penta-His biosensors; Example 11 calls it SPR.

B1: human VSIG8-Fc-OX40L chimeric protein (Fc fusion)
chain: VRINGDGQEVLYLAEGDNVRLGCPYVLDPEDYGPNGLDIEWMQVNSDPAHHRENVFLSYQDKRINHGSLPHLQQRVRFAASDPSQYDASINLMNLQVSDTATYECRVKKTTMATRKVIVTVQARPAVPMCWTEGHMTYGNDVVLKCYASGGSQPLSYKWAKISGHHYPYRAGSYTSQHSYHSELSYQESFHSSINQGLNNGDLVLKDISRADDGLYQCTVANNVGYSVCVVEVKVSDSRRIGCPPCPAPEFLGGPSVFLFPPKPKDQLMISRTPEVTCVVVDVSQEDPEVQFNWYVDGVEVHNAKTKPREEQFNSTYRVVSVLTVLHQDWLSGKEYKCKVSSKGLPSSIEKTISNATGQPREPQVYTLPPSQEEMTKNQVSLTCLVKGFYPSDIAVEWESNGQPENNYKTTPPVLDSDGSFFLYSRLTVDKSRWQEGNVFSCSVLHEALHNHYTQKSLSLSLGKIEGRMDQVSHRYPRIQSIKVQFTEYKKEKGFILTSQKEDEIMKVQNNSVIINCDGFYLISLKGYFSQEVNISLHYQKDEEPLFQLKKVRSVNSLMVASLTYKDKVYLNVTTDNTSLDDFHVNGGELILIHQNPGEFCVL
notes: also called hVSIG8-Fc-OX40L
The EC50 is the concentration needed to bring the measured effect to its halfway point. Low readings indicate higher potency in that assay, high ones lower potency in that assay. A word on the Kd: it is the concentration at which binding is half-saturated. Read a low Kd as a tighter complex. What is called koff is the rate constant with which the complex falls apart. The low end stands for slow dissociation, the high end for fast dissociation. As usually defined, the kon is the rate constant with which the complex forms. Higher therefore signals faster complex formation. In general, EC50 (read off the curve) refers to the midpoint of the concentration-response curve. As to B1, the EC50 in experiment [1] was about 30 nM. Further, the “fold slower off-rate than the Fc-OX40L protein” value in experiment [2] was 10 fold. In experiment [3], this molecule returned a Kd of 0.767 nM, a koff of 0.000254 s⁻¹ and a kon of 331000 M⁻¹ s⁻¹. Besides, in experiment [4], the “EC50 (read off the curve)” value is about 6 nM.

B2: commercially-available single-sided human Fc-OX40L (Fc fusion, UniProt P23510 51-183, looked up)
chain: QVSHRYPRIQSIKVQFTEYKKEKGFILTSQKEDEIMKVQNNSVIINCDGFYLISLKGYFSQEVNISLHYQKDEEPLFQLKKVRSVNSLMVASLTYKDKVYLNVTTDNTSLDDFHVNGGELILIHQNPGEFCVL
notes: Bought control; also called hFc-OX40L; recombinant control protein; not shown: Fc part of a bought control protein, not described
Consider B2, for which, in experiment [5], binding was put at a Kd of 61 nM, the koff was determined as 0.00254 s⁻¹ and the kon turned out to be 41700 M⁻¹ s⁻¹.

B3: commercially-available mFc-OX40L (Fc fusion, murine, UniProt P43488 51-198, looked up)
chain: SSSPAKDPPIQRLRGAVTRCEDGQLFISSYKNEYQTMEVQNNSVVIKCDGLYIIYLKGSFFQEVKIDLHFREDHNPISIPMLNDGRRIVFTVVASLAFKDKVYLTVNAPDTLCEHLQINDGELIVVQLTPGYCAPEGSYHSTVNQVPL
notes: Bought control; Construct is not described; also called commercially-available recombinant control protein; not shown: Fc part of a bought control protein, not described
As to B3, in experiment [6], the binding result is “binds”.
